Where no end group is shown, it is not given here.
Experiments:
[1] = target: T1, Anti-CD28 Fab (SEQ ID NOs: 696, 697); test: phage ELISA; captured anti-CD28 Fab pre-incubated with CD28 antigen as competitor, anti-M13 HRP;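 note: crude clonal phage supernatants added without washing after CD28 pre-incubation, bound phage detected with HRP anti-M13 antibody, reference wells got blocking buffer lacking CD28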
T1 construct: In the phage ELISA the Fab was biotinylated and captured on neutravidin coated plates
T1 sequence (VH, as listed by the source, chain 1 of 2): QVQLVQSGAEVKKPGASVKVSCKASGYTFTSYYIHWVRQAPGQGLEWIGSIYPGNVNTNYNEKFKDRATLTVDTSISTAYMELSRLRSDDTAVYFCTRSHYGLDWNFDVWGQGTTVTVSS
T1 sequence (VL, as listed by the source, chain 2 of 2): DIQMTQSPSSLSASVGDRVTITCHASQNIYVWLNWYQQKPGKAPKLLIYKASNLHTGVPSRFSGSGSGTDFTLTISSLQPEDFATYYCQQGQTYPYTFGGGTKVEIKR
Method: (§1) After panning, phage infected bacteria were plated out and colonies picked into 96 well blocks. Clonal phage was then amplified and separated from bacterial cells via centrifugation.
(§2) Clonal phage were harvested as crude supematants and screened via standard ELISAs. […] Prior to the addition of clonal phage, wells were incubated with blocking buffer and CD28 antigen or blocking buffer alone. Without washing or aspirating, clonal phage supematants were then added to the wells and incubated for a short time. Wells were then washed followed by detection of bound phage using a horse radish conjugated anti-M13 antibody. Clonal phage of interest were then sent for sequence analysis.

[2] = target: T1, Anti-CD28 Fab (SEQ ID NOs: 696, 697); test: phage ELISA; biotinylated anti-CD28 Fab on neutravidin plate, clonal phage supernatant, anti-M13 HRP
[3] = target: T2, Anti-CD28 Fab (SEQ ID NOs: 696, 697); test: phage binding ELISA; biotinylated anti-CD28 Fab on neutravidin plate, bound phage detected with anti-M13 HRP;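 note: crude supernatants of clonal phage screened, wells pretreated with blocking buffer with or without CD28 antigen before brief phage incubation, washed, then bound phage detected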
T2 construct: Biotinylated and captured on neutravidin coated plates in the phage ELISA
T2 sequence (VH, as listed by the source, chain 1 of 2): as the sequence (VH, as listed by the source, chain 1 of 2) above
T2 sequence (VL, as listed by the source, chain 2 of 2): as the sequence (VL, as listed by the source, chain 2 of 2) above

[4] = target: T2, Anti-CD28 Fab (SEQ ID NOs: 696, 697); test: phage binding ELISA on captured anti-CD28 Fab; competitor: CD28 antigen at saturating concentration
Method: as §1, §2

[5] = target: T3, Anti-CD28 Fab (SEQ ID NOs: 696, 697); test: phage binding ELISA; clonal phage on plate-captured biotinylated anti-CD28 Fab, anti-M13 HRP detection
T3 construct: In the phage ELISA the Fab was biotinylated and captured on neutravidin coated plates
T3 sequence (VH, as listed by the source, chain 1 of 2): as the sequence (VH, as listed by the source, chain 1 of 2) above
T3 sequence (VL, as listed by the source, chain 2 of 2): as the sequence (VL, as listed by the source, chain 2 of 2) above
Method: as §1, §2

[6] = target: T3, Anti-CD28 Fab (SEQ ID NOs: 696, 697); test: phage binding ELISA on plate-captured anti-CD28 Fab pre-incubated with CD28 antigen as competitor
Method: as §1, §2

[7] = target: T4, Anti-CD28 Fab (SEQ ID NOs: 696, 697); test: phage ELISA; Fab-coated wells first incubated with CD28 antigen (competitor), then clonal phage, anti-M13 HRP
T4 construct: Biotinylated and captured on neutravidin coated plates in the phage ELISA
T4 sequence (VH, as listed by the source, chain 1 of 2): as the sequence (VH, as listed by the source, chain 1 of 2) above
T4 sequence (VL, as listed by the source, chain 2 of 2): as the sequence (VL, as listed by the source, chain 2 of 2) above
Method: as §1, §2

[8] = target: T4, Anti-CD28 Fab (SEQ ID NOs: 696, 697); test: phage ELISA; biotinylated anti-CD28 Fab on neutravidin plate, clonal phage supernatant, anti-M13 HRP

Binder	Anti-CD28 Fab signal [3]	Anti-CD28 Fab signal in the presence of CD28 [4]	Anti-CD28 Fab signal (phage binding ELISA) [5]	Anti-CD28 Fab signal in the presence of CD28 (phage binding ELISA) [6]	further results
YCDGHDARYMTKCL (cysteine pairing not given here; also: displayed on phage by fusion to pIII, linker and pIII sequence not given here) [Phage-1205]	–	–	–	–	Anti-CD28 Fab signal in the presence of CD28 (phage binding ELISA) [1]: 0.09; Anti-CD28 Fab signal (phage binding ELISA) [2]: 1.04
YCAGHSQVYMWKCL (tested as crude clonal phage supernatant) [Phage-1210]	1.02	0.06	–	–	–
YCDGHLPEYMLKCL (cysteine pairing not given here; also: displayed on phage by fusion to pIII, linker and pIII sequence not given here, Tested as clonal phage supernatant) [Phage-1229]	–	–	0.96	0.09	–
YCDGHVGAYMWKCL (tested as crude clonal phage supernatant) [Phage-1220]	0.99	0.06	–	–	–
YCDGHLEVYMSKCL (tested as crude clonal phage supernatant) [Phage-1216]	1	0.09	–	–	–
YCEGHAHEYMEKCV [Phage-1237]	–	–	–	–	Anti-CD28 Fab signal in the presence of CD28 (phage binding ELISA) [7]: 0.07; Anti-CD28 Fab signal (phage binding ELISA) [8]: 0.93
YCEGHIEPYMQKCL (tested as crude clonal phage supernatant) [Phage-1218]	0.99	0.06	–	–	–
YCDGHSKEYMSKCL (cysteine pairing not given here; also: displayed on phage by fusion to pIII, linker and pIII sequence not given here, Tested as clonal phage supernatant) [Phage-1228]	–	–	0.96	0.07	–
YCEGHSSVYLWKCL (tested as crude clonal phage supernatant) [Phage-1214]	1	0.05	–	–	–
YCEGHSAIYIAKCM (cysteine pairing not given here; also: displayed on phage by fusion to pIII, linker and pIII sequence not given here, Tested as clonal phage supernatant) [Phage-1221]	–	–	0.98	0.11	–
YCDGHKPEYMDKCL (tested as crude clonal phage supernatant) [Phage-1219]	0.99	0.07	–	–	–
YCAGHAAEYMWKCL (cysteine pairing not given here; also: displayed on phage by fusion to pIII, linker and pIII sequence not given here, Tested as clonal phage supernatant) [Phage-1225]	–	–	0.97	0.06	–
YCEGHSWIYIAKCL (tested as crude clonal phage supernatant) [Phage-1215]	1	0.07	–	–	–
YCAGHLDVYMSKCL (cysteine pairing not given here; also: displayed on phage by fusion to pIII, linker and pIII sequence not given here, Tested as clonal phage supernatant) [Phage-1230]	–	–	0.96	0.09	–
YCEGHSSAYMRKCL (cysteine pairing not given here; also: displayed on phage by fusion to pIII, linker and pIII sequence not given here) [Phage-1207]	–	–	–	–	Anti-CD28 Fab signal in the presence of CD28 (phage binding ELISA) [1]: 0.06; Anti-CD28 Fab signal (phage binding ELISA) [2]: 1.04
YCEGHVPEYLVKCL (cysteine pairing not given here; also: displayed on phage by fusion to pIII, linker and pIII sequence not given here, Tested as clonal phage supernatant) [Phage-1227]	–	–	0.96	0.06	–
YCEGHLREYMLKCL (tested as crude clonal phage supernatant) [Phage-1213]	1.01	0.07	–	–	–

Binder	Anti-CD28 Fab signal [3]	Anti-CD28 Fab signal in the presence of CD28 [4]	Anti-CD28 Fab signal (phage binding ELISA) [5]	Anti-CD28 Fab signal in the presence of CD28 (phage binding ELISA) [6]	further results
YCEGHDIRYMMKCL (cysteine pairing not given here; also: displayed on phage by fusion to pIII, linker and pIII sequence not given here, Tested as clonal phage supernatant) [Phage-1232]	–	–	0.95	0.08	–
YCEGHSVEYILKCL (cysteine pairing not given here; also: displayed on phage by fusion to pIII, linker and pIII sequence not given here) [Phage-1206]	–	–	–	–	Anti-CD28 Fab signal in the presence of CD28 (phage binding ELISA) [1]: 0.06; Anti-CD28 Fab signal (phage binding ELISA) [2]: 1.04
YCSGHSWAYIGKCL (cysteine pairing not given here; also: displayed on phage by fusion to pIII, linker and pIII sequence not given here, Tested as clonal phage supernatant) [Phage-1224]	–	–	0.98	0.07	–
YCQGHFPQYMAKCL (cysteine pairing not given here; also: displayed on phage by fusion to pIII, linker and pIII sequence not given here, Tested as clonal phage supernatant) [Phage-1226]	–	–	0.97	0.07	–
YCDGHIPQYVEKCL [Phage-1235]	–	–	–	–	Anti-CD28 Fab signal in the presence of CD28 (phage binding ELISA) [7]: 0.08; Anti-CD28 Fab signal (phage binding ELISA) [8]: 0.94
YCEGHIEQYMRKCL (tested as crude clonal phage supernatant) [Phage-1211]	1.01	0.06	–	–	–
YCDGHTGMYISKCL (cysteine pairing not given here; also: displayed on phage by fusion to pIII, linker and pIII sequence not given here, Tested as clonal phage supernatant) [Phage-1223]	–	–	0.98	0.06	–
YCAGHSSEYLQKCL (tested as crude clonal phage supernatant) [Phage-1209]	1.03	0.09	–	–	–
YCDGHEERYMAKCL (cysteine pairing not given here; also: displayed on phage by fusion to pIII, linker and pIII sequence not given here, Tested as clonal phage supernatant) [Phage-1233]	–	–	0.94	0.06	–
YCAGHAEIYMQKCL [Phage-1236]	–	–	–	–	Anti-CD28 Fab signal in the presence of CD28 (phage binding ELISA) [7]: 0.05; Anti-CD28 Fab signal (phage binding ELISA) [8]: 0.93
YCDGHLAEYIQKCL (tested as crude clonal phage supernatant) [Phage-1208]	1.04	0.08	–	–	–
YCAGHTPEYLDKCL (cysteine pairing not given here; also: displayed on phage by fusion to pIII, linker and pIII sequence not given here, Tested as clonal phage supernatant) [Phage-1231]	–	–	0.95	0.06	–
YCFGHFPEYMAKCL (cysteine pairing not given here; also: displayed on phage by fusion to pIII, linker and pIII sequence not given here, Tested as clonal phage supernatant) [Phage-1222]	–	–	0.98	0.07	–
YCEGHRPEYMANCL (tested as crude clonal phage supernatant) [Phage-1217]	1	0.06	–	–	–
YCFGHAPEYLLKCL (tested as crude clonal phage supernatant) [Phage-1212]	1.01	0.08	–	–	–
YCSGHVPEYMEKCL [Phage-1234]	–	–	–	–	Anti-CD28 Fab signal in the presence of CD28 (phage binding ELISA) [7]: 0.06; Anti-CD28 Fab signal (phage binding ELISA) [8]: 0.94

From patent US20260242478A1 (published 2026)
